Test results published in the supplement of paper PMC11246515.
± gives the standard deviation of the averaged measurements.

Assay: total protein half-life in vivo (active degradation + dilution); higher = more stable protein
[1] = E. coli NCM3722 delta-clpP delta-lon delta-hslV, growth: N-lim chemostat, doubling time 6 h
[2] = E. coli NCM3722 delta-clpP, growth: N-lim chemostat, doubling time 6 h
[3] = E. coli NCM3722 delta-hslV, growth: N-lim chemostat, doubling time 6 h
[4] = E. coli NCM3722 delta-lon, growth: N-lim chemostat, doubling time 6 h
[5] = wild type E. coli NCM3722, growth: C-lim chemostat, doubling time 3 h
[6] = wild type E. coli NCM3722, growth: C-lim chemostat, doubling time 6 h
[7] = wild type E. coli NCM3722, growth: C-lim chemostat, doubling time 12 h
[8] = wild type E. coli NCM3722, growth: N-lim chemostat, doubling time 6 h
[9] = wild type E. coli NCM3722, growth: N-lim chemostat, doubling time 12 h
[10] = wild type E. coli NCM3722, growth: P-lim chemostat, doubling time 6 h
[11] = wild type E. coli NCM3722, growth: P-lim chemostat, doubling time 12 h
[12] = E. coli NCM3722 delta-smpB, growth: N-lim chemostat, doubling time 6 h

Sequence	total protein half-life in vivo [1]	total protein half-life in vivo [2]	total protein half-life in vivo [3]	total protein half-life in vivo [4]	total protein half-life in vivo [5]	total protein half-life in vivo [6]	total protein half-life in vivo [7]	total protein half-life in vivo [8]	total protein half-life in vivo [9]	total protein half-life in vivo [10]	total protein half-life in vivo [11]	total protein half-life in vivo [12]
MAISSRNTLLAALAFIAFQAQAVNVTVAYQTSAEPAKVAQADNTFAKESGATVDWRKFDSGASIVRALASGDVQIGNLGSSPLAVAASQQVPIEVFLLASKLGNSEALVVKKTISKPEDLIGKRIAVPFISTTHYSLLAALKHWGIKPGQVEIVNLQPPAIIAAWQRGDIDGAYVWAPAVNALEKDGKVLTDSEQVGQWGAPTLDVWVVRKDFAEKHPEVVKAFAKSAIDAQQPYIANPDVWLKQPENISKLARLSGVPEGDVPGLVKGNTYLTPQQQTAELTGPVNKAIIDTAQFLKEQGKVPAVANDYSQYVTSRFVQ	4.13 ± 0.43 h	4.56 ± 0.22 h	5.96 ± 0.29 h	5.56 ± 0.55 h	2.98 ± 0.11 h	5.75 ± 1.8 h	13.2 ± 2.6 h	5.5 ± 0.39 h	12.4 ± 0.93 h	6.77 ± 1.1 h	11 ± 0.14 h	
MRFVDEYRAPEQVMQLIEHLRERASHLSYTAERPLRIMEVCGGHTHAIFKFGLDQLLPENVEFIHGPGCPVCVLPMGRIDTCVEIASHPEVIFCTFGDAMRVPGKQGSLLQAKARGADVRIVYSPMDALKLAQENPTRKVVFFGLGFETTMPTTAITLQQAKARDVQNFYFFCQHITLIPTLRSLLEQPDNGIDAFLAPGHVSMVIGTDAYNFIASDFHRPLVVAGFEPLDLLQGVVMLVQQKIAAHSKVENQYRRVVPDAGNLLAQQAIADVFCVNGDSEWRGLGVIESSGVHLTPDYQRFDAEAHFRPAPQQVCDDPRARCGEVLTGKCKPHQCPLFGNTCNPQTAFGALMVSSEGACAAWYQYRQQESEA	5.73 h	3.17 ± 0.086 h	2.4 h	2.92 ± 0.14 h	2.32 ± 0.034 h	3.94 ± 0.33 h	5.53 ± 0.43 h	2.2 h	2.79 h	3.08 h	5.78 h	
MEKYLHLLSRGDKIGLTLIRLSIAIVFMWIGLLKFVPYEADSITPFVANSPLMSFFYEHPEDYKQYLTHEGEYKPEARAWQTANNTYGFSNGLGVVEVIIALLVLANPVNRWLGLLGGLMAFTTPLVTLSFLITTPEAWVPALGDAHHGFPYLSGAGRLVLKDTLMLAGAVMIMADSAREILKQRSNESSSTLKTEY							12.5 h		6.8 h			5.11 h
MAQITTTDANEFSSSAEFIPMRGFSNCHLQTMLPRLFRRQVKFTPYWQRLELPDGDFVDLAWSENPAQAQHKPRLVVFHGLEGSLNSPYAHGLVEAAQKRGWLGVVMHFRGCSGEPNRMHRIYHSGETEDASWFLRWLQREFGHAPTAAVGYSLGGNMLACLLAKEGNDLPVDAAVIVSAPFMLEACSYHMEKGFSRVYQRYLLNLLKANAARKLAAYPGTLPINLAQLKSVRRIREFDDLITARIHGYADAIDYYRQCSAMPMLNRIAKPTLIIHAKDDPFMDHQVIPKPESLPPQVEYQLTEHGGHVGFIGGTLLHPQMWLESRIPDWLTTYLEAKSC	3.69 h						3.84 h			2.34 h	4.3 h	
MKRAPLITGLLLISTSCAYASSGGCGADSTSGATNYSSVVDDVTVNQTDNVTGREFTSATLSSTNWQYACSCSAGKAVKLVYMVSPVLTTTGHQTGYYKLNDSLDIKTTLQANDIPGLTTDQVVSVNTRFTQIKNNTVYSAATQTGVCQGDTSRYGPVNIGANTTFTLYVTKPFLGSMTIPKTDIAVIKGAWVDGMGSPSTGDFHDLVKLSIQGNLTAPQSCKINQGDVIKVNFGFINGQKFTTRNAMPDGFTPVDFDITYDCGDTSKIKNSLQMRIDGTTGVVDQYNLVARRRSSDNVPDVGIRIENLGGGVANIPFQNGILPVDPSGHGTVNMRAWPVNLVGGELETGKFQGTATITVIVR		5.21 h	6.04 ± 0.24 h		3.66 h	6.25 ± 0.34 h	11.5 h	5.8 h	14 h	5.42 h	13.3 h	
MRVLIVKTSSMGDVLHTLPALTDAQQAIPGIKFDWVVEEGFAQIPSWHAAVERVIPVAIRRWRKAWFSAPIKAERKAFREALQAENYDAVIDAQGLVKSAALVTRLAHGVKHGMDWQTAREPLASLFYNRKHHIAKQQHAVERTRELFAKSLGYSKPQTQGDYAIAQHFLTNLPTDAGEYAVFLHATTRDDKHWPEEHWRELIGLLADSGIRIKLPWGAPHEEERAKRLAEGFAYVEVLPKMSLEGVARVLAGAKFVVSVDTGLSHLTAALDRPNITVYGPTDPGLIGGYGKNQMVCRAPRENLINLNSQAVLEKLSSL	5.54 ± 0.21 h	5.02 ± 0.34 h	5.1 h	5.08 ± 0.063 h	2.76 ± 0.13 h	5.73 ± 0.28 h	13.2 ± 2.2 h	5.72 ± 0.27 h	11.5 ± 2.6 h	5.23 ± 0.16 h	10.63 ± 0.039 h	5.74 ± 1.2 h
